Measured values from publication doi:10.1101/2023.08.22.554218 (bioRxiv, 2023).

Molecular target: T1, Recombinant human PDZD8 (1,28-) - FLAG (human, UniProt Q8NEN9 1-1154, (1, 28-))
T1 sequence (looked up): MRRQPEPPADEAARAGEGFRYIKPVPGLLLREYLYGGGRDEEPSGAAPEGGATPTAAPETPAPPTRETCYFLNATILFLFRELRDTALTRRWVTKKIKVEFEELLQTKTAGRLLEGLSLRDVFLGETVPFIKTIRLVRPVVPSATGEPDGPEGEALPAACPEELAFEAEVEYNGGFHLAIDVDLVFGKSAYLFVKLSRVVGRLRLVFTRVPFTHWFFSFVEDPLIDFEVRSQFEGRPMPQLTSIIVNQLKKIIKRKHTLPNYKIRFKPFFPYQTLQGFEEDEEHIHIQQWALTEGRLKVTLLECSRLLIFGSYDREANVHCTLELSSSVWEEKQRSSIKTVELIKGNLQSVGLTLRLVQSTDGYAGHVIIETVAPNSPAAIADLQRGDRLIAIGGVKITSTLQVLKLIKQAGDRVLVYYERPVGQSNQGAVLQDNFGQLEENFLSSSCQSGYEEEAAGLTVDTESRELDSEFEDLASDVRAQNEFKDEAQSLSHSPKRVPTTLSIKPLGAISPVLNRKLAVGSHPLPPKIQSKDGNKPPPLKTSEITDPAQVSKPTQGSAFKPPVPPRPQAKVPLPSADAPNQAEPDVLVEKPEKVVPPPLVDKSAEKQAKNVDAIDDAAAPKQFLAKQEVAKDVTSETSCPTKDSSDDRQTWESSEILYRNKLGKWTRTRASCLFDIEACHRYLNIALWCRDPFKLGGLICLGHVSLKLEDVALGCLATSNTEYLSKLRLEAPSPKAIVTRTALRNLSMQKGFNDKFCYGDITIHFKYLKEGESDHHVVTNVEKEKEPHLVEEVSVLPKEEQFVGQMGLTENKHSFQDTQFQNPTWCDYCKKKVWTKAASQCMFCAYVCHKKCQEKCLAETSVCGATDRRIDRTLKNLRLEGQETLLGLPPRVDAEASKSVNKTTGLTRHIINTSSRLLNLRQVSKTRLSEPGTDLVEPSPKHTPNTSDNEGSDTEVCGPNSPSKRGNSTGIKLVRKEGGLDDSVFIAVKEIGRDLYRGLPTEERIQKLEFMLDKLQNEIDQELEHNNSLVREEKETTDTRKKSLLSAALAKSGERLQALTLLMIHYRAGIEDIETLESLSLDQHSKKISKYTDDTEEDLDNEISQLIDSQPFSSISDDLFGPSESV
Assay: SPR

Kd: 142 µM
B1: Recombinant human FKBP8 (1-380) - Histag (domain or fragment, UniProt Q14318 1-380, looked up)
chain: MASCAEPSEPSAPLPAGVPPLEDFEVLDGVEDAEGEEEEEEEEEEEDDLSELPPLEDMGQPPAEEAEQPGALAREFLAAMEPEPAPAPAPEEWLDILGNGLLRKKTLVPGPPGSSRPVKGQVVTVHLQTSLENGTRVQEEPELVFTLGDCDVIQALDLSVPLMDVGETAMVTADSKYCYGPQGRSPYIPPHAALCLEVTLKTAVDGPDLEMLTGQERVALANRKRECGNAHYQRADFVLAANSYDLAIKAITSSAKVDMTFEEEAQLLQLKVKCLNNLAASQLKLDHYRAALRSCSLVLEHQPDNIKALFRKGKVLAQQGEYSEAIPILRAALKLEPSNKTIHAELSKLVKKHAAQRSTETALYRKMLGNPSRLPAKCPG
